T1: ZIP4 as tested by flow cytometry (human, UniProt Q6P5W5 23-647)
T1 sequence: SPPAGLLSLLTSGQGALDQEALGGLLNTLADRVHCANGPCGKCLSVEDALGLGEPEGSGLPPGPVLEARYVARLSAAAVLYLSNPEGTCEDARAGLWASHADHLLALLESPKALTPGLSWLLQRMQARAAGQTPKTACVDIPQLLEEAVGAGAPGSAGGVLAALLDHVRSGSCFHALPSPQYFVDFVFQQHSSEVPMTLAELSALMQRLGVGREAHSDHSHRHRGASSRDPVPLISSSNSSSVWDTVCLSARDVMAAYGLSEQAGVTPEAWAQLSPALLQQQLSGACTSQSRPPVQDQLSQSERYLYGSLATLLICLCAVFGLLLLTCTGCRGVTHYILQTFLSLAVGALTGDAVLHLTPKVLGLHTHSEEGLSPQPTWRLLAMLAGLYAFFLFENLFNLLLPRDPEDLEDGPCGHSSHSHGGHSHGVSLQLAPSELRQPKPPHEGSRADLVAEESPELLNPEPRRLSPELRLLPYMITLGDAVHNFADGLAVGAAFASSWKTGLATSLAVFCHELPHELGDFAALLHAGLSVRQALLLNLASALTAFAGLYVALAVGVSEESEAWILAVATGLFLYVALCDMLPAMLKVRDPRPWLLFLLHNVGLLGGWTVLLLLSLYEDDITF

T2: human ZIP4 extracellular domain GST fusion (human, UniProt Q6P5W5 23-327)
T2 construct: also called hZIP4-ECD-GST; huZIP4-ECD-GST; not shown: glutathione S-transferase (GST) fusion partner
T2 sequence: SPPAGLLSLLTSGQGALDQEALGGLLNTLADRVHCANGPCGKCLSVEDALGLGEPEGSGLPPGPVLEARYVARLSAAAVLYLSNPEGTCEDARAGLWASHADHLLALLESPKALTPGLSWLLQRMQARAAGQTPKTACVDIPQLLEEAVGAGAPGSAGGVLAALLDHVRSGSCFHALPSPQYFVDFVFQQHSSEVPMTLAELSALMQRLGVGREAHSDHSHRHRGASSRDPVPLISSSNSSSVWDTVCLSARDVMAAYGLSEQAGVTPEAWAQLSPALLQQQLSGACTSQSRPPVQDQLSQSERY


Legend:
[1] = molecular target: T1, ZIP4 as tested by flow cytometry; assay: flow cytometry-based reactivity screening, 63A11 lineage (FIG. 7)
[2] = molecular target: T3, human ZIP12 on human ZIP12 expressing transfectant cells (human, UniProt Q504Y0 1-691); assay: as above
T3 construct: Zinc transporter; also called ZIP12 transfected cells

[3] = molecular target: T2, human ZIP4 extracellular domain GST …; assay: ELISA-based reactivity screening, 63A11 lineage (FIG. 6)
[4] = molecular target: T4, human ZIP12 extracellular domain expressed as a GST fusion protein (human, UniProt Q504Y0 1-202); assay: as above
T4 construct: also called hZIP12-ECD-GST; huZIP12-ECD-GST; not shown: glutathione S-transferase (GST) fusion partner

[5] = molecular target: T2, human ZIP4 extracellular domain GST …; assay: ELISA-based reactivity screening, 51B12 lineage (FIG. 9)
[6] = molecular target: T4, human ZIP12 extracellular domain …; assay: as above

| Binder | binding result [1] | binding result [2] | binding result [3] | binding result [4] | binding result [5] | binding result [6] |
| --- | --- | --- | --- | --- | --- | --- |
| 63A11 parental antibody (antibody, human IgG1, kappa, V domains shown, the full chains it gives are the chimeric ones; also called 19214; parent antibody) VH: EVQLVESGGGLVKPGGSRKLSCAASGFTFSDHGMHWVRQAPEKGLEWVAYISSGSSAIFYADTVKGRFTMSRDNAKNTLFLQMTSLRSEDTAMYFCARWTNLYAMDYWGQGTSVTVSS VL: DIVLTQSPASLAVSLGQRATISCRASKSVSTSGYSYMHWYQQKPGQPPKLLIYLASNLESGVPARFSGSGSGTDFTLNIHPVEEEDAATYYCQHSRELPLTFGAGTKLELKR | no binding | binds | no binding | binds | – | – |
| 51B12 parental antibody (antibody, human IgG1, kappa, V domains shown, also called 19213; parent antibody) VH: EVQLVESGGGLVKPGGSRKLSCAASGFTFSDYGMHWVRQAPEKGLEWVAYISSGGTTIYYADTVKGRFTISRDNAKNTLFLQMTSLRSEDTAMYYCARWTNLYAMDYWGQGTSVTVSS VL: DIVLTQSPASLAVSLGQRATISCRASKSVSTSGYSYMHWYQQKPGQPPKFLIYLASNLESGVPARFSGSGSGTDFTLNIHPVEEEDAATYYCQHSREVPYTFGGGTKLEIKR | – | – | – | – | no binding | binds |

From US20230357387A1 (published 2023)
